What was measured:
FcγRIIa (CD32) (H131) = experiment: Lumit FcγRIIa (H131) Binding Immunoassay (Promega), left panel FcγRIIa (CD32) (H131), competition with Tracer-LgBiT, n=1
[1] = target: FcγRIIIa (CD16) (V158) (Homo sapiens) (UniProt P08637); experiment: Lumit FcγRIIIa (V158) Binding Immunoassay (Promega), left panel FcγRIIIa (CD16) (V158), competition with Tracer-LgBiT, n=1
[2] = target: recombinant human FcRn (FcγRn-SmBiT, Lumit assay) (human) (UniProt P55899); experiment: Lumit FcRn Binding Immunoassay (Promega), competition with Tracer-LgBiT for FcRn-SmBiT, n=1

FcγRIIa (CD32) (H131), sequence (chain, as listed by the source limits assumed): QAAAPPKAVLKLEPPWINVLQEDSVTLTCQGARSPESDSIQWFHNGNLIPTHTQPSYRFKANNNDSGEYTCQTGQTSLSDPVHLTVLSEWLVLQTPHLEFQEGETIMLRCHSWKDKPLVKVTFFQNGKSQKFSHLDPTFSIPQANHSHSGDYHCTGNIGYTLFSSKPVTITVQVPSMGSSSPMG
FcγRIIIa (CD16) (V158) (Homo sapiens), sequence (P08637 17-208 F176V limits assumed): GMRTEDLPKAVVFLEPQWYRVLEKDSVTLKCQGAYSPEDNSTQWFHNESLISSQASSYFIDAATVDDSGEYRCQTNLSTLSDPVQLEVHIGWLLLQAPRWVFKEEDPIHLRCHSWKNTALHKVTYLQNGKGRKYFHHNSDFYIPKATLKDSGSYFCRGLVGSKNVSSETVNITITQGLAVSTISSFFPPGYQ

IC50 (read off the curve) (FcγRIIa (CD32) (H131)): 1 µg/mL
IC50 (read off the curve) [1]: 2 µg/mL
IC50 (read off the curve) [2]: 2 µg/mL
Substance: IgG1 positive control (standard of the Lumit FcγR Binding Immunoassays) (antibody)

Source: patent publication US20240182596A1, “ANTI-NAPI2B ANTIBODIES AND ANTIBODY-DRUG-CONJUGATES BASED THEREON, THERAPEUTIC METHODS AND USES THEREOF” (Tubulis GmbH, priority 2022, published 2024)
